# Test: soluble on expression in E. coli; label from the status in PepcDB or PDB records
row,Sequence,soluble on expression in E. coli
1,MPSRAEDYEVLYTIGTGSYGRCQKIRRKSDGKILVWKELDYGSMTEAEKQMLVSEVNLLRELKHPNIVRYYDRIIDRTNTTLYIVMEYCEGGDLASVITKGTKERQYLDEEFVLRVMTQLTLALKECHRRSDGGHTVLHRDLKPANVFLDGKQNVKLGDFGLARILNHDTSFAKTFVGTPYYMSPEQMNRMSYNEKSDIWSLGCLLYELCALMPPFTAFSQKELAGKIREGKFRRIPYRYSDELNEIITRMLNLKDYHRPSVEEILENPLIADLVADEQRRNLERRGRQLGEPEKSQDSSPVLSELKLKEIQLQERERALKAREKRLEQKEQELCVRERLAEDKLARAENLLKSYSLLKERKFLSLASNPELLNLPSSVIKKKVHFSGESKENIMRSENSESQLTSKSKCKDLKKRLHAAQLRAQALSDIEKNYQLKSRQILGMR,soluble
2,MAYQVTTFYHFTRLNCLAEKQSRWQELGDRLGLKGTILLAEEGVNATIAGESAAIEEMVKIMAADLGLTSVPQRHSWAKTIPFQRMKVKIKPEIVSLGQPQVNPEKQVGTYVSPQQWNQLLQDPDVVVIDTRNDYEVAIGTFQGAVNPCTKKFRQFPDYVKNNLDQQKNKKVAMFCTGGIRCEKASAYLLEEGFAEVYHLRGGILHYLETIAPEESLWQGECFVFDERVAVQEGLKVGSHALCDHCGYPLRVGDLAEIRYAVRHCPQCGLTVAVSNELLEHHHHHH,soluble
3,MSLGNPTSINPGGSSTTTGMAFNEENGFQVSDYAGQPEGPNLVYIEGGRTVLGSFEEDLMKNGDNVERTVTVASFYMDETEIANIHWLEYLFYVQRDSSQEFYESALPDTTVWASELAYNDPYVDHYFRYPGFRYFPVVGVNWIQANDYCIWRTTVVNNQLAQNAGIDVPEGGGRIPLESGVVLPNYRLPSEAEWEYAAQALIGNQWLDENQTHKRLYPWDGHALRNPYGKQMGMFLANFKRGRGDYAGIAGKLNDGAMITTYIYEFPPNDFGLYCMAGNVNEWVYDVYRPLSFQTFDDLNPLRRNGFLDEEKGYDKAGFQSLVDDHVRVYKGGSWKDVAYWMSPGTRRYLAEDSCTATIGFRCAMIQAGTEGHHHHHH,soluble
4,MASKSQKKVLKKQNKKKKKDPLAPKRALSAYMFYVKDKRLEIIKEKPELAKDVAQVGKLIGEAWGQLSPAQKAPYEKKAQLDKVRYSKEIEEYRKKNQE,soluble
5,MGHHHHHHSHMVSTATHSLSRLHTMLTGLRNAPSEKLEQILRTCSRDPTQAIANRLKEMFEIYSQHFQPDEDFSNCAKEIASKHFRFAEMLYYKVLESVIEQEQKRLGDMDLSGILEQDAFHRSLLACCLEVVTFSYKPPGNFPFITEIFDVPLYHFYKVIEVFIRAEDGLCREVVKHLNQIEEQILDHLAWKPES,not soluble
6,MTSNFREYLFAPDHPRLAELRELDAYAYRTVARRPGTFTGDLVAGWTPLYKNEFRGVTEDGTLREDVHCLEPARAGEAAPVPEMVAAAADLLAGLDDESRERIRYRVDAPEWQTWANPEFMQFDTGIRLEFQSEDVRRKALRLMASSLSPQGYELARNMMLINGFLGEVVGLPGILNEFSYNMAIYGTPHETRPWGWQVFGHHLAVNCFVVDGRMVISPLFLGAEPNEIDEGEHAGVTSFGTRIELGLALMAELTPEQRCAATVYEQMVDPAMPPGRVHPGDERHLAGAFQDNRQIPFEGVRVADLSCRAQELVLEIVEQFVALLPDGPRAARMREVRKMLSQTWFSWIGGHRPGDVFYYRVQSPVIIAELDHHCGVFLDYDTPKPFHIHTVVRTPHGNDYGRAYLRQWEQGHRLEHHHHHH,soluble
7,MGSDKIHHHHHHQGPQCNHAQLPFQQMTPVPYDSTPYSPQDTMPEQCSNPEVEAYIADWEAGKIDFTTIKANDSIAADQRFCKTLDDDGNISEVKDCDRTKSPVGYIWKELSDSPVVIGITDGGKSDHAPHFHGQPECYYVVNGEGQTLADNQFKKLGTGQYFYIPGATIHNTPIMSEKGLGVIYWYPNNAHFDGFKYYWRKDVKNLRVAEEAFDRVDAIRKRDLNLGPYGTNEAFFKK,not soluble
8,MTEDRLSAEDKKFLEVERALKEAALNPLRHATEELFGDFLKMENITEICYNGNKVVWVLKNNGEWQPFDVRDRKAFSLSRLMHFARCCASFKKKTIDNYENPILSSNLANGERVQIVLSPVTVNDETISISIRIPSKTTYPHSFFEEQGFYNLLDNKEQAISAIKDGIAIGKNVIVCGGTGSGKTTYIKSIMEFIPKEERIISIEDTEEIVFKHHKNYTQLFFGGNITSADCLKSCLRMRPDRIILGELRSSEAYDFYNVLCSGHKGTLTTLHAGSSEEAFIRLANMSSSNSAARNIKFESLIEGFKDLIDMIVHINHHKQCDEFYIKHR,soluble
9,GSKATDSVLQGSEGNKVKRTSCMYGANCYRKNPVHFQHFSHPGDSDYGGVQIVGQDETDDRPECPYGPSCYRKNPQHKIEYRHNTLPVRNV,soluble
10,MGSDKIHHHHHHMIERLELRNLTVFTGLTLELSPKINVIIGENGTGKTHLLKAAYGLCAGAPLFKNKPDTGDDELEAALTAKLLRLFMPLDDKLGKMHRQGATDQAYLSAKFAGGQKIAATFFNNSKALAVQDRANYEKYQAEAVFIPTKEVLSFMKGFNSLYEKYGLSFDQTYQDICLLLDLPEVRPETLHEKSKWAMAEIEGICGGRFVFYGGGKVTFKTENAEYSANSMAEGFRKAGILSRLLETGAIQPGVSGPLFWDEPESNLNPKLMKLLVQILLELSRNGQQIILATHDYVLLKWFDLLMDKGKDDHVRFHSLYRDADTSEIKVASTEDYLKITPNPIDEAFGFLINQEIENDMGGLGK,not soluble
11,MRKNILITGVHGYIGNALKDKLIEQGHQVDQINVRNQLWKSTSFKDYDVLIHTAALVHNNSPQARLSDYMQVNMLLTKQLAQKAKAEDVKQFIFMSTMAVYGKEGHVGKSDQVDTQTPMNPTTNYGISKKFAEQALQELISDSFKVAIVRPPMIYGAHCPGNFQRLMQLSKRLPIIPNINNQRSALYIKHLTAFIDQLISLEVTGVYHPQDSFYFDTSSVMYEIRRQSHRKTVLINMPSMLNKYFNKLSVFRKLFGNLIYSNTLYENNNALEIIPGKMSLVIADIMDETTTKDKA,not soluble
12,MGSDKIHHHHHHMKIDRSVIRSLALFAKMADDELDGLLTHATSRLVPPGEAIFEQGQSAAHFFLLIHGRLKVTQVTHDGQQIIVRMVHPGDLFGFARALQRSDYPGTATTAAESVILSWQTDLWPQFVEQNPHLAVSAMQTIGQRLEEAHTRIREMSTQEVERRVAHAVLRLSQQAGRKELDGIRIDFPISRQDIAEMTGTTLHTVSRILSSWESKGLVQGGRQKLLVCNLPGLAQLAEGETSQV,not soluble
13,MGSDKIHHHHHHMTLNNLEIDTLVVGAGQAGVAMSEHLSKLGVPHLVLERNRIAQAWRTGRWDSLVANGPAWHDRFPGLEFNLDADAFAGKDQVADYFEQYVRKYNLPVRTGIEVKRVVRNSDRPGFTIDTSEGVIRANRVVAATGPFQKPVIPAIAPKDSNLHQIHSAAYFNPEQLPEGAVLVVGAGSSGVQIAEELMRAGRQVYLSVGAHDRPPRAYRNRDFCWWLGVLGEWDAEIAKPGREHVTIAVSGARGGHTVDFRALAHQGMTLVGLTQSFENGVARFQDNLVENINRGDDNYLALLDAADAYIERNGLDLPEEPEARQRLADPECMRNPLQQLDLAKAGVSSIIWATGYGVDFSWLQVDTFDANGKPQHQRGVAREPGVYFLGLPWLSRRGSSFIWGVWHDAKHVAGHIATQRTYTAYRDREQRAADEQQTAKISNVSTLGAH,not soluble
14,MGSDKIHHHHHHVSKPLTGIHILVTRPSHQAGGLAGKIRAAGGEPCLFPVLEIQDISDPRPLLELIERLDEFYLAIFVSPNAVNKAMSVICAKRALPSDLKIATVGQGTARTLRRFGVSGVIVPAVRFDSEALLDMAELDRINVAGKRIIIFRGDNGRELLGETLRKRGASVEYAECYRRIRPEAEIGPLLAAWTRGEMNGVTVTSSEGLRNLWEMVGDSGRTWLENTPLFVSHERIAGVARKLGFNRVIVTAAGDDGLVAGLQDYFSGHMG,not soluble
15,MKAKITGEDDVRVGLHVTDNNGVKHKIEMEFNGEIKYHNQDGYPDKPKNRTPNGNAHVNQTCRYARYHVYQETEYTPLPPEENLPGIKKVKQAIADLSVKEFEAYFSDTYDQVLSNHPSVTPPVPHPESVPQNGYILYLIDVYLDDNDEIEAVSDIHLQYLDENGDKTQDWNDDPFPDRQPDARLQLFGKYVPSMDVFQEFVVYHLRCQLRDVYIGAGLEPPEKYRVLGRGDDDLTSRYHNDKVTIYDDYHLEEADIPGYELEFDYGFGELGKQSVINAKRKGIGAENPDDADSRLANPSQDGEEGLLETVSSVLRGSDTDQTET,not soluble
16,MGSDKIHHHHHHMSNIKVLIQASSRSWAGGRDICMGLVNGEITVARTIKRALEAFPAAQLCLVAPEFDQDGELGGVIEYVKDKRLKAFYGFDESPLKRMIAASIELADNDYIVRIDGIHFCFDVDLSQKMLALALQKKLDCIKLPADFPVHFSSEVFRVGALRELVKLLDKPELEKFNIHPKIYFELNRYNYNFEYLRTLPQYSDEYLSECRKLAKDIYDIPRLEVGSKRTIWADTPSYHYQLALEYLNSNMKVLDIACGNGYGVRMMSTFLAEVHGADLDPEIINLAKAYTHEKNVEYYIEDITNLSFEDDSYDAVTCFETLEHIPEDDCLKELRRIIRPGGMLVLSTPQNSYGHIPVNACHIVEYSLDALLKLVGRYFLVVKVIGIKAGTIHSDADPYGTNTVLVCIKPF,not soluble
17,MAMVSGRRSTLNPDAPLFIPAAVRQVEDFSPEWWQLVTTSTWYPDYWISQQQQGADGFYDNGENENGGGHIDVADLLPESFDFDDMEDFFDTDAAEFDQGFDGRMYYQAPSEFGFGKNGEMVKKSSGNRSPRSIVEPAKYAEKPAKWGNQRVAAAPRNIHQPR,soluble
18,MGSDKIHHHHHHQVSGDTVKIGFITDLSGLYADIDGQGGVEAIKMAIEDAGGKVLGKPIELVTADHQNKADIAASKAREWMDQQGLDVLIGGTNSGTALAMNKVAAEKKRVYINNGAGTARLTNEECSPYTVHYAYDTVALAKGTGSAVVKQGGKSWFFLTADYAFGHSLESDTAAVVKANGGTVLGSVRHPLSASDFSSFLLQAQASKAQILGLANAGGDTINSIKAAKEFGITKTMKIAGLLMFINDIHSLGLKNTEGLLMTDSWYWDMNDDTRKFANRYFSKMKKMPSSLQAADYSAVSTYLKAVAAAKTDDPDKVMAELKKTKINDFYTKGYIRQDGRGIHDMYLMQVKSPAESKKPWDYLKIVATIPGDQAFTTVAESKCSMMKK,not soluble
19,MSLSQAHFSSWRGHQEFLAPHLIEGRAVRAFIGWAGVMIYDPTLDVIALAKEYARQYQCFAETCGRCAPGKFGGKILFDLLEKIDQGRGEESDLERLVEVGKLMMTTSKCEVGKTTPLPILDLLEAYRPLFVEALGNRSRKERSKKERYIAKITAPCIDACPAHVDIPAYIEGVRDHLLGDSLAATRKSMPLAQVCGRVCPHPCESACRRGDLDEPISIMELKRLGADYEKERHGGFIHPYPPKPRRKDKRVAIIGAGPAGLSSAYYLALEGIMSDVFEALPVLGGEVSVGVPEYRMPIDRYYHDIEAIKSLGVSFWTNHFVSAKELDEMRQKYDAIILATGARISKKLGVKGEEESLGGYAPAIPWLDQINLATKFNLAALPDLRGKSVVCVGGGFTSMDVVRCAVRLGAKRIVMLYRRDEATLIQNTSKEEYHEALEEGVEFLFQCAVQEIKSCGGEIKALLVEEYEVVYEEGARKPSLRRIEREPLFLECDLLIPAVSQEVDRSFIPKEWNLESTSWGSFKTNGKDFSTTLRGVFAAGDCEKGPLTIVNAVGQGKRAASVVSRFLEDGEITLTPEEEMEDWLKKEGVYDRSMPVVGWLAGLVRQESHKEEPLKRREDFREVNQGLSMQEAFAESERCMRCYYISMVALEGHHHHHH,not soluble
20,KGGWFGKHRGQGGSNPKFENIAEGLRALLARSHVERTTDEGTWVAGVFVYGGSKTSLYNLRRGTALAIPQCRLTPLSRLPFGMAPGPGPQPGPLRESIVCYFMVFLQTHIFAEVLKDAIKDLVMTKPAPTCNIRVTVCSFDDGVDLP,soluble

# — the DeepSol protein solubility set
